Results taken from the supplement of paper PMC10567573.
± gives the standard deviation.

Test: protein stability index of a GFP-peptide fusion (GPS, HEK-293T) (PSI 1-6); higher = more stable
[1] = treatment: DMSO, c terminus: a fixed tail appended
[2] = treatment: MLN4924 1 uM, 8 h, c terminus: a fixed tail appended
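Further: 24-mer peptide tiles fused after GFP, lentivirally expressed, FACS-sorted into six equal bins by GFP/DsRed ratio, decoded by Illumina sequencing, PSI is the read-weighted mean bin number.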

| Sequence | protein stability index [1] | protein stability index [2] | protein stability index (treatment: DMSO, c terminus: native) | protein stability index (treatment: MLN4924 1 uM, 8 h, c terminus: native) |
| --- | --- | --- | --- | --- |
| REAFPSWSSRSPQERSRVLNQVAD [ALDH8A1] | 4.2 ± 0.33 | 4.233 ± 0.03 | – | – |
| REARKRALARKQAQEQLRPQTPEP [RSPH3] | 5.04 ± 0.28 | 5.12 ± 0.15 | – | – |
| RETVLIETQLKACASFIRTRLLLQ [C8orf76] | 2.88 ± 0.57 | 2.9 ± 0.71 | – | – |
| REVALLRRLEAFEHPNVVRLMDVC [CDK4] | 2.52 ± 0.15 | 2.68 ± 0.2 | – | – |
| RFFGPNAEISQPPALSQLVNLYLG [TCF25] | 3.05 ± 0.19 | 2.96 ± 0.36 | – | – |
| RGSKMFKLRQMRVEKFIYENHPDV [MYOZ1] | 2.9 ± 0.37 | 2.52 ± 0.12 | – | – |
| RGTGQLNRFVQLSGRPHLPGKKKI [KLHDC10] | 2.99 ± 0.2 | 3.03 ± 0.26 | – | – |
| RHYAYLRDSLSHLVPALRLPGRKL [INTS4] | 2.31 ± 0.16 | 2.49 ± 0.45 | – | – |
| RIAAVEALCMLAQSSPSFAEKCLD [INTS4] | 2.46 ± 0.49 | 2.2 ± 0.53 | – | – |
| RIFTFICKDSESNKHLCYVFDSEK [GULP1] | 2.06 ± 0.56 | 2.21 ± 0.31 | – | – |
| RKILVLDLDETLIHSHHDGVLRPT [CTDNEP1] | 2.46 ± 0.2 | 2.61 ± 0.17 | – | – |
| RKKRLLDRKVLLKSDSPTGDVLLD [GOLPH3L] | 4.22 ± 0.14 | 4.14 ± 0.19 | – | – |
| RKLSPTEPKNYGSYSTQASAAAAT [SCAMP3] | 4.37 ± 0.17 | 4.38 ± 0.14 | – | – |
| RKQILLRGKLKKTEEELRRIQTQK [ZC2HC1C] | 3.99 ± 0.24 | 4.2 ± 0.26 | – | – |
| RLEINVLKKIKEKDKENKFLCVLM [CLK3] | 2.57 ± 0.52 | 2.1 ± 0.082 | – | – |
| RLKKEEEDRIVTQNRVFAYLCKRV [CEP70] | 2.55 ± 0.31 | 2.86 ± 0.43 | – | – |
| RLQVKEHQHEEIQNVRNHIHSCFS [ATL3] | 3.21 ± 0.17 | 3.23 ± 0.21 | – | – |
| RMEGSQEVVNMAVIVPKEEGVISV [WDFY2] | 3.23 ± 0.36 | 3.45 ± 0.17 | – | – |
| RPGPQSVPLQLSAHWQCGATLTQV [FCHO1] | 2.21 ± 0.23 | 2.43 ± 0.2 | – | – |
| RPRYKADVPDLQSVCSCTCYRSQD [KCNK9] | 3.34 ± 0.41 | 3.67 ± 0.23 | – | – |
| RPSSILPPRRGVSGDRDENSFSLN [MAP2] | 4.67 ± 0.09 | 4.63 ± 0.12 | – | – |
| RQILHLITMMALKVLGELNILPNT [TENT5D] | 3.42 ± 0.64 | 2.81 ± 0.1 | – | – |
| RRLRDMVERPHSGLPGKVFACLSV [KCNG1] | 2.47 ± 0.49 | 2.4 ± 0.49 | – | – |

| Sequence | protein stability index [1] | protein stability index [2] | protein stability index (treatment: DMSO, c terminus: native) | protein stability index (treatment: MLN4924 1 uM, 8 h, c terminus: native) |
| --- | --- | --- | --- | --- |
| RRWGKRKNKPKMNYEKLSRGLRYY [ETS1] | 2.44 ± 0.33 | 2.68 ± 0.38 | – | – |
| RRWKLQVLDLRKNSHQDFWTVWSG [PRAME] | 2.46 ± 0.73 | 2.07 ± 0.44 | – | – |
| RSHPDNAIPIKSWFSDPSDTALLN [CTDNEP1] | 3.73 ± 0.18 | 3.87 ± 0.18 | – | – |
| RSSSCGDTELLGQATLPVGSPSRP [C2CD2L] | 5.04 ± 0.15 | 5.04 ± 0.13 | – | – |
| RSVIEVPAVPEEILKRLLKEQHLW [DLC1] | 2.48 ± 0.36 | 2.69 ± 0.37 | – | – |
| RSWAMLFASGGFQVKLYDIEQQQI [CRYL1] | 2.16 ± 0.34 | 2.28 ± 0.67 | – | – |
| RTAMPYGGYEKASKRMTFQMPKFD [MYOZ1] | 2.76 ± 0.18 | 2.86 ± 0.23 | – | – |
| RTARALLDRDALKQSLVVAVQDHG [PCDHGA10] | 3.72 ± 0.18 | 3.87 ± 0.34 | – | – |
| RTELLKDAIGEGKVTLRIRNVRFS [MOG] | 2.68 ± 0.4 | 2.79 ± 0.42 | – | – |
| RTHTGEKPYTCSVCGKSFSRTTCL [ZNF8] | 2.92 ± 0.31 | 3.35 ± 0.54 | – | – |
| RTISCHVQNGTYLQRVLQNCPWPM [EMID1] | 2.12 ± 0.22 | 2.02 ± 0.17 | – | – |
| RVKFKSQQHRQGRSHHLEMVIQLL [PTGFR] | 2.44 ± 0.19 | 2.21 ± 0.17 | – | – |
| RVLKAYTLYRPEEGYCQAQAPIAA [TBC1D10A] | 2.08 ± 0.29 | 2.16 ± 0.21 | – | – |
| RYSCESRIRSYLREVSSYPSTVGA [DFFB] | 2.6 ± 0.27 | 2.73 ± 0.46 | – | – |
| RYSGKILKNNETLVQHGVKPQEIV [IQUB] | 3.42 ± 0.21 | 3.71 ± 0.53 | – | – |
| RYVSNWDFFIVGCEVIFCVFIFYY [PKD2L1] | 3.07 ± 0.34 | 2.89 ± 0.32 | – | – |
| SAAYYLNDLDRIAQPNYIPTQQDV [GNAI1] | 3.7 ± 0.28 | 3.73 ± 0.24 | – | – |
| SACSFTNSDMQILTASGDGTCALW [GNB5] | 2.33 ± 0.27 | 2.15 ± 0.22 | – | – |
| SAPYSAAFLELPHGSGGSGYPAAP [TBX6] | 3.27 ± 0.15 | 3.55 ± 0.27 | – | – |
| SCLLLQLRREKPSEEMVKMVLSRP [INTS3] | 2.64 ± 0.67 | 2.42 ± 0.34 | – | – |
| SDHEMREEEKLKAEEIRIKGKYNI [KCNK9] | 5.11 ± 0.21 | 5.22 ± 0.3 | – | – |
| SDLLNDQDLLDVIRIKLDPCHPTV [EDARADD] | 2.67 ± 0.23 | 2.78 ± 0.21 | – | – |
| SEATLPAQMSTLHVSPPPSADPAR [PDLIM4] | 5.26 ± 0.17 | 5.17 ± 0.18 | – | – |

| Sequence | protein stability index [1] | protein stability index [2] | protein stability index (treatment: DMSO, c terminus: native) | protein stability index (treatment: MLN4924 1 uM, 8 h, c terminus: native) |
| --- | --- | --- | --- | --- |
| SEDSFCRRHPGLGKAFPSGCSAVS [TRAF3IP2] | 3.66 ± 0.24 | 3.46 ± 0.33 | – | – |
| SEHFKTTSQKVARKFWWKNVKMIV [VAMP8] | 2.69 ± 0.24 | 2.61 ± 0.71 | – | – |
| SEKRRDPPNGPNLPMATVDIKNPE [WASL] | 5.35 ± 0.11 | 5.28 ± 0.17 | – | – |
| SFGNCTYNLTILDCLQGIRKGLQH [CDC14A] | 2.38 ± 0.36 | 2.33 ± 0.44 | – | – |
| SFSTGAGGWSNHHFCVILLGFLP [BET1L] | – | – | 2.99 ± 0.39 | 2.99 ± 0.53 |
| SGRRGPPPPPRSRGPPRGLRGGRG [RBMX] | 4.87 ± 0.25 | 5.14 ± 0.3 | – | – |
| SHPRVQSGCDKEALLTGGGSENRN [RNF180] | 4.77 ± 0.31 | 4.65 ± 0.24 | – | – |
| SISEEGFHYLVFDLVTGGELFEDI [CAMK2B] | 2.32 ± 0.42 | 2.24 ± 0.4 | – | – |
| SISKLSPFSEFFKLRFNRKKKGMY [PWWP2B] | 2.06 ± 0.25 | 2.31 ± 0.19 | – | – |
| SKRKAETWKKNRRQLAYSTVGTPD [STK38L] | 4.02 ± 0.41 | 4.33 ± 0.5 | – | – |
| SKYQLSEAQLSLIRDIRRRGKNKM [NFE2L1] | 3.69 ± 0.28 | 3.9 ± 0.54 | – | – |
| SLCNLEESITSAGRDDLESFQLEI [FAM98B] | 3.26 ± 0.16 | 3.45 ± 0.19 | – | – |
| SLCVLVSTVGKLCRLINEDVNEQV [CEP70] | 3.25 ± 0.48 | 2.96 ± 0.21 | – | – |
| SLGSALKPGEGRSALFAGNEWRRP [TRIM29] | 3.46 ± 0.26 | 3.31 ± 0.21 | – | – |
| SLHKGAKRKGIKSSIGRLFGKKEK [PPFIA4] | 3.6 ± 0.46 | 3.73 ± 0.18 | – | – |
| SLIFSLKNEVGGLIKALKIFQEKH [TPH1] | 2.07 ± 0.23 | 2.75 ± 0.82 | – | – |
| SLKEEHRAYDLLRAASENSQDALR [IKZF1] | 4.32 ± 0.52 | 4.36 ± 0.34 | – | – |
| SLSNAVANTMEHLSLLDNNIPGNS [FBXO33] | 3.64 ± 0.092 | 3.94 ± 0.28 | – | – |
| SMKGSCGIGGGIGGGSSRISSVLA [KRT16] | 2.54 ± 0.42 | 2.64 ± 0.33 | – | – |
| SMNWGINLLISLTFLTVTDLIGLP [SLC2A12] | 3.3 ± 0.18 | 3.02 ± 0.12 | – | – |
| SMSTRRLGVAVAVLGGFLYAVGGS [KLHL20] | 2.29 ± 0.42 | 2.67 ± 1.2 | – | – |
| SNFNYFYHRETEGEEQAQLLHVSS [KCNA1] | 3.95 ± 0.12 | 4.03 ± 0.34 | – | – |
| SNHSWNTQTWCTQSWNNQAWNSPF [NANOGP8] | 2.24 ± 0.23 | 2.19 ± 0.18 | – | – |

| Sequence | protein stability index [1] | protein stability index [2] | protein stability index (treatment: DMSO, c terminus: native) | protein stability index (treatment: MLN4924 1 uM, 8 h, c terminus: native) |
| --- | --- | --- | --- | --- |
| SNVSSSGSINLLESPQLATLAEDV [MAP2] | 5.03 ± 0.22 | 5.17 ± 0.24 | – | – |
| SPDILEEKHCEFKQLALDHFKKTK [ATL3] | 4.79 ± 0.23 | 4.79 ± 0.12 | – | – |
| SPPDQPAVPHPPPSTPIKLEEGDG [ADD1] | 5.56 ± 0.2 | 5.62 ± 0.18 | – | – |
| SPPSSSAASSYSFSDLNSTRGDAD [EMD] | 5.12 ± 0.29 | 4.98 ± 0.2 | – | – |
| SQEESEEGEEDATSEVDKRRTRPR [CHGB] | 5.57 ± 0.33 | 5.59 ± 0.2 | – | – |
| SRQLLPGDEFSLREHELLCRADHG [ISL2] | 4.19 ± 0.17 | 4.27 ± 0.089 | – | – |
| SRVLQNGGDKLETMPLYLEDDIRP [SCD] | 4.66 ± 0.23 | 4.53 ± 0.21 | – | – |
| SSAVSGVKEWFGLGGEQAEEKAFE [MIA2] | 5.09 ± 0.43 | 5.04 ± 0.19 | – | – |
| SSDSVGGFRYSERYDPEPKSKWDE [CLINT1] | 4.98 ± 0.29 | 4.95 ± 0.091 | – | – |
| SSFFFSGVFVGVISFGQLSDRFGR [SLC22A15] | 2.96 ± 0.94 | 3.021 ± 0.018 | – | – |
| SSGKNVTLLVCGKKAYDYFQAKKI [PDZK1] | 2.13 ± 0.26 | 2.57 ± 0.82 | – | – |
| SSGPGNSQNSFLVQEVMEEEWNAL [RPAIN] | 4.88 ± 0.2 | 4.92 ± 0.25 | – | – |
| SSMKKFCRPLLPSCTTRLCQEEQL [PSD2] | 2.88 ± 0.29 | 2.98 ± 0.15 | – | – |
| SSQKQHSFTSSDKTIKSFFPHSGK [C8orf76] | 3.9 ± 0.085 | 4.15 ± 0.14 | – | – |
| SSRGAPRGGGRGGSRSDRGGGRSR [RBMX] | 5.34 ± 0.18 | 5.45 ± 0.28 | – | – |
| SSSSGVLMVGPNFRVGKKIGCGNF [CSNK1G3] | 2.71 ± 0.38 | 2.71 ± 0.21 | – | – |
| SSSYSPETFRQQFRQFGYQDSPGP [ZNF396] | 3.48 ± 0.23 | 3.24 ± 0.21 | – | – |
| SSTLNPSTSSSTQGDPAFPEMNGN [NOL4L] | 5.44 ± 0.25 | 5.44 ± 0.2 | – | – |
| SSWPFSIQDVVQPLTLQVQRPLVS [AUP1] | 2.77 ± 0.32 | 3.03 ± 0.2 | – | – |
| STHQEAENEKDRADQTVLTEDEKK [CHGB] | 5.35 ± 0.48 | 5.83 ± 0.091 | – | – |
